Data published in the supplement of paper PMC9112550, “Optimization of the antimicrobial peptide Bac7 by deep mutational scanning” (BMC Biology, 2022).

Test system: Escherichia coli TOP10
Assay: shrunken log2 fold change of peptide-encoding DNA abundance (4.5 h post-induction vs induction); higher = less antimicrobial activity (less host growth inhibition)
Conditions: time post-induction: 4.5 h; library: site-saturation at positions 5, 18, 19, 20
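Further: peptides expressed intracellularly from a pBAD plasmid library in pooled LB shake-flask culture, induced with 0.3% L-arabinose, DNA abundance read by NGS, three biological replicates, DESeq2 with apeglm shrinkage.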

| Sequence | shrunken log2 fold change |
| --- | --- |
| RRIRTRPPRLPRPRPRPNGPPRP | -0.277 |
| RRIRRRPPRLPRPRPRPLEYPRP | -0.326 |
| RRIRPRPPRLPRPRPRPQKWPRP | 0.17 |
| RRIRERPPRLPRPRPRPRQAPRP | 0.0291 |
| RRIRGRPPRLPRPRPRPWLNPRP | -0.00435 |
| RRIRSRPPRLPRPRPRPPYTPRP | -0.395 |
| RRIRFRPPRLPRPRPRPQGAPRP | -0.0798 |
| RRIRGRPPRLPRPRPRPKVDPRP | 3.36 |
| RRIRYRPPRLPRPRPRPAFVPRP | -0.178 |
| RRIRDRPPRLPRPRPRPMLLPRP | 0.307 |
| RRIRRRPPRLPRPRPRPQVNPRP | -0.0663 |
| RRIRVRPPRLPRPRPRPYLYPRP | -1.05 |
| RRIRWRPPRLPRPRPRPCFWPRP | 0.213 |
| RRIRMRPPRLPRPRPRPHQEPRP | 0.018 |
| RRIRVRPPRLPRPRPRPLVIPRP | -0.429 |
| RRIRHRPPRLPRPRPRPFGQPRP | -0.162 |
| RRIRFRPPRLPRPRPRPDCPPRP | -0.364 |
| RRIRTRPPRLPRPRPRPDDNPRP | -0.195 |
| RRIRHRPPRLPRPRPRPGCTPRP | -0.514 |
| RRIRNRPPRLPRPRPRPSKMPRP | -0.22 |
| RRIRTRPPRLPRPRPRPDYRPRP | 0.0112 |
| RRIRQRPPRLPRPRPRPSPSPRP | -0.144 |
| RRIRKRPPRLPRPRPRPSYKPRP | -0.692 |
| RRIRERPPRLPRPRPRPLWAPRP | 0.274 |
| RRIRRRPPRLPRPRPRPSDKPRP | -0.492 |

| Sequence | shrunken log2 fold change |
| --- | --- |
| RRIRIRPPRLPRPRPRPDYRPRP | 0.0581 |
| RRIRRRPPRLPRPRPRPWMDPRP | -0.196 |
| RRIRWRPPRLPRPRPRPAGEPRP | 0.432 |
| RRIRYRPPRLPRPRPRPETIPRP | -0.495 |
| RRIRRRPPRLPRPRPRPIAHPRP | -0.0355 |
| RRIRNRPPRLPRPRPRPGWYPRP | -0.273 |
| RRIRMRPPRLPRPRPRPQHKPRP | -0.0523 |
| RRIRTRPPRLPRPRPRPGNVPRP | 0.0939 |
| RRIRWRPPRLPRPRPRPFFCPRP | 0.104 |
| RRIRIRPPRLPRPRPRPVFSPRP | -0.626 |
| RRIRRRPPRLPRPRPRPFIQPRP | -0.0404 |
| RRIRMRPPRLPRPRPRPLSDPRP | 0.861 |
| RRIRSRPPRLPRPRPRPHWNPRP | -0.429 |
| RRIRQRPPRLPRPRPRPYLVPRP | -0.551 |
| RRIRGRPPRLPRPRPRPEMMPRP | 1.3 |
| RRIRIRPPRLPRPRPRPDSSPRP | -0.318 |
| RRIRQRPPRLPRPRPRPKPDPRP | 0.313 |
| RRIRLRPPRLPRPRPRPLACPRP | -0.454 |
| RRIRSRPPRLPRPRPRPTYEPRP | -0.328 |
| RRIRSRPPRLPRPRPRPDCCPRP | 0.227 |
| RRIRHRPPRLPRPRPRPLPAPRP | 0.192 |
| RRIRPRPPRLPRPRPRPITEPRP | -0.0543 |
| RRIRKRPPRLPRPRPRPFYDPRP | 0.0223 |
| RRIRFRPPRLPRPRPRPQYCPRP | -0.943 |
| RRIRPRPPRLPRPRPRPKRQPRP | 0.0603 |

| Sequence | shrunken log2 fold change |
| --- | --- |
| RRIRYRPPRLPRPRPRPHSVPRP | -0.07 |
| RRIRHRPPRLPRPRPRPRILPRP | 0.091 |
| RRIRKRPPRLPRPRPRPPHQPRP | 0.61 |
| RRIRPRPPRLPRPRPRPQWNPRP | 0.36 |
| RRIRFRPPRLPRPRPRPHQFPRP | -0.343 |
| RRIRSRPPRLPRPRPRPSAWPRP | 0.555 |
| RRIRARPPRLPRPRPRPTYHPRP | -0.225 |
| RRIRPRPPRLPRPRPRPWVSPRP | 0.0233 |
| RRIRGRPPRLPRPRPRPCCAPRP | 1.55 |
| RRIRLRPPRLPRPRPRPVLTPRP | -0.198 |
| RRIRLRPPRLPRPRPRPSDHPRP | -0.293 |
| RRIRCRPPRLPRPRPRPAGSPRP | 0.432 |
| RRIRLRPPRLPRPRPRPQVDPRP | -0.136 |
| RRIRARPPRLPRPRPRPQRQPRP | 0.24 |
| RRIRCRPPRLPRPRPRPIQEPRP | 0.0221 |
| RRIRDRPPRLPRPRPRPINFPRP | -0.0167 |
| RRIRCRPPRLPRPRPRPIYRPRP | -0.318 |
| RRIRIRPPRLPRPRPRPVYPPRP | -0.233 |
| RRIRYRPPRLPRPRPRPRNKPRP | -0.661 |
| RRIRTRPPRLPRPRPRPTCVPRP | -0.308 |
| RRIRIRPPRLPRPRPRPGAKPRP | 0.126 |
| RRIRCRPPRLPRPRPRPTSKPRP | 0.921 |
| RRIRMRPPRLPRPRPRPLLRPRP | 0.0923 |
| RRIRDRPPRLPRPRPRPCVVPRP | -0.00921 |
| RRIRHRPPRLPRPRPRPLKFPRP | -0.298 |

| Sequence | shrunken log2 fold change |
| --- | --- |
| RRIRLRPPRLPRPRPRPMYEPRP | 0.129 |
| RRIRTRPPRLPRPRPRPMHEPRP | -0.0192 |
| RRIRGRPPRLPRPRPRPKSQPRP | 0.556 |
| RRIRNRPPRLPRPRPRPEGPPRP | 0.026 |
| RRIRARPPRLPRPRPRPAVWPRP | 0.64 |
| RRIRDRPPRLPRPRPRPSDVPRP | -0.022 |
| RRIRMRPPRLPRPRPRPENRPRP | 0.247 |
| RRIRIRPPRLPRPRPRPKICPRP | -0.883 |
| RRIRCRPPRLPRPRPRPIEMPRP | -0.0735 |
| RRIRRRPPRLPRPRPRPRLLPRP | 0.474 |
| RRIRWRPPRLPRPRPRPLSNPRP | -0.252 |
| RRIRRRPPRLPRPRPRPNLQPRP | -0.07 |
| RRIRLRPPRLPRPRPRPGGKPRP | -0.00333 |
| RRIRDRPPRLPRPRPRPNKLPRP | -0.277 |
| RRIRRRPPRLPRPRPRPCLEPRP | 0.11 |
| RRIRWRPPRLPRPRPRPWDYPRP | -0.0902 |
| RRIRKRPPRLPRPRPRPRNDPRP | 0.352 |
| RRIRERPPRLPRPRPRPAIQPRP | -0.337 |
| RRIRLRPPRLPRPRPRPMCNPRP | 0.107 |
| RRIRKRPPRLPRPRPRPIIHPRP | -0.0792 |
| RRIRSRPPRLPRPRPRPRCEPRP | 0.152 |
| RRIRKRPPRLPRPRPRPEWWPRP | 0.0708 |
| RRIRGRPPRLPRPRPRPHPRPRP | 0.839 |
| RRIRQRPPRLPRPRPRPYLKPRP | 0.00123 |
| RRIRSRPPRLPRPRPRPNTIPRP | -0.511 |

| Sequence | shrunken log2 fold change |
| --- | --- |
| RRIRVRPPRLPRPRPRPYFNPRP | -0.729 |
| RRIRTRPPRLPRPRPRPELGPRP | 0.248 |
| RRIRVRPPRLPRPRPRPQWWPRP | 0.0756 |
| RRIRIRPPRLPRPRPRPEFHPRP | 0.0992 |
| RRIRLRPPRLPRPRPRPDSEPRP | 0.482 |
| RRIRLRPPRLPRPRPRPWGRPRP | -0.0734 |
| RRIRYRPPRLPRPRPRPLYKPRP | -0.229 |
| RRIRRRPPRLPRPRPRPAGMPRP | 0.102 |
| RRIRMRPPRLPRPRPRPNCMPRP | 0.183 |
| RRIRKRPPRLPRPRPRPLAWPRP | 0.928 |
| RRIRERPPRLPRPRPRPYTWPRP | -0.161 |
| RRIRMRPPRLPRPRPRPYPTPRP | -0.114 |
| RRIRQRPPRLPRPRPRPDALPRP | -0.0392 |
| RRIRKRPPRLPRPRPRPPMIPRP | -0.0795 |
| RRIRRRPPRLPRPRPRPPAWPRP | 0.919 |
| RRIRIRPPRLPRPRPRPWRNPRP | -0.0466 |
| RRIRRRPPRLPRPRPRPSSRPRP | -0.00108 |
| RRIRVRPPRLPRPRPRPGSYPRP | -0.186 |
| RRIRCRPPRLPRPRPRPRYKPRP | -0.141 |
| RRIRDRPPRLPRPRPRPRPPPRP | 0.935 |
| RRIRMRPPRLPRPRPRPEIPPRP | 0.497 |
| RRIRWRPPRLPRPRPRPTMEPRP | 0.00667 |
| RRIRLRPPRLPRPRPRPHGMPRP | -0.177 |
| RRIRARPPRLPRPRPRPWYMPRP | -0.958 |
| RRIRKRPPRLPRPRPRPQYEPRP | 0.0265 |
